Target: T1, HsTHUMPD2 (purified) (human, UniProt Q9BTF0-1 1-503)
T1 sequence (looked up): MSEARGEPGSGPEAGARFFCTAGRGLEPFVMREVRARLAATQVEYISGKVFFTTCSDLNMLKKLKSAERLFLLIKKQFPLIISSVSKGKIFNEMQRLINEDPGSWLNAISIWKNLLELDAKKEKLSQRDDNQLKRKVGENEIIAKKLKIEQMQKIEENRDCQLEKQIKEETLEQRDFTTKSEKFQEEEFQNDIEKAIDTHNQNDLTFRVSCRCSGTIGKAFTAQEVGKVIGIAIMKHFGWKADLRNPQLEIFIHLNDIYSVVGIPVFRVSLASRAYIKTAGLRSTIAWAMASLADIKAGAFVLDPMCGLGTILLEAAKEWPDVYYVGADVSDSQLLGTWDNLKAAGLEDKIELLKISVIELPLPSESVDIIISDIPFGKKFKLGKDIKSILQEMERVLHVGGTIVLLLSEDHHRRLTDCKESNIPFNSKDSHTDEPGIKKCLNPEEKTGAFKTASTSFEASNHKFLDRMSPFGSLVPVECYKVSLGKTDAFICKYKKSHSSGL
Test: SEC

B1: HsTRMT112 (purified) (natural protein, human, UniProt Q9UI30-1 1-125, looked up)
chain: MKLLTHNLLSSHVRGVGSRGFPLRLQATEVRICPVEFNPNFVARMIPKVEWSAFLEAADNLRLIQVPKGPVEGYEENEEFLRTMHHLLLEVEVIEGTLQCPESGRMFPISRGIPNMLLSEEETES
binding result: binds
